Target: His6-Mad2 (recombinant human Mad2) (human, UniProt Q13257 1-205)
Experiment: pull-down

His6-Mad2 (recombinant human Mad2), sequence (Q13257 whole entry): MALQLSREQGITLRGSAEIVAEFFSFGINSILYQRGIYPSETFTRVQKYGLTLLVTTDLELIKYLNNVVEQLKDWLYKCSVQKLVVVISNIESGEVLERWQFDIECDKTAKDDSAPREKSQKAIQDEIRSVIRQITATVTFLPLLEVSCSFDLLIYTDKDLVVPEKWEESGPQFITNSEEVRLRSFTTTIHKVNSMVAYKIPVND

B1: GST-Cdc20^N151 (first 151 amino acids of human Cdc20), wild type (domain or fragment)
chain: MAQFAFESDLHSLLQLDAPIPNAPPARWQRKAKEAAGPAPSPMRAANRSHSAGRTPGRTPGKSSSKVQTTPSKPGGDRYIPHRSAAQMEVASFLLSKENQPENSQTPTKKEHQKAWALNLNGFDVEEAKILRLSGKPQNAPEGYQNRLKVL
B1: binds.

— article PMC3461516 (The Journal of Cell Biology, 2012)
